Source: US20130089499A1 (NATIONAL RESEARCH COUNCIL OF CANADA, published 2013)
Each block holds one molecule with its values, some of them ahead of it.

Experiments:
human myostatin (GDF8) = human myostatin (GDF8) (human, UniProt O14793 267-375); assay: cell-based or functional assay
TGF-β1 [1] = target: T1, TGF-β1 (UniProt P01137 279-390); assay: SPR indirect binding assay: binder titrated against 5 nM TGF-β1, free TGF-β1 measured on the 1D11 surface
Description: (§1) SPR data was generated using a Biacore 3000 instrument (G.E. Healthcare Inc.) using HBS as running buffer. […] A twenty-fold stock concentration of TGF-β (100 nM in 10 mM acetic acid) was used. […] Blank injection samples were made from 10 μl 10 mM acetic acid mixed with 190 uL HBS. […] All sensogram analysis was carried out using Biacore BiaEvaluation software v4.1 (G.E. Healthcare Inc.).

TGF-β1 [2] = target: T1, TGF-β1; assay: cell-based or functional assay
TGF-β1 [3] = target: T1, TGF-β1; assay: SPR (Biacore) solution competition: trap coinjected with 5 nM TGF-β1 over immobilised 1D11 anti-TGF-β antibody; plateau response measures free TGF-β1
TGF-β1 [4] = target: T1, TGF-β1; assay: SPR (Biacore) solution competition: binder pre-incubated with 5 nM TGF-β1, injected over immobilised 1D11 anti-TGF-β antibody; plateau response measures free TGF-β1
Description: as §1

TGF-β2 = target: T2, TGF-β2 (UniProt P61812 303-414); assay: SPR (Biacore), 100 nM injected over immobilised TGF-β2
T2 sequence (looked up): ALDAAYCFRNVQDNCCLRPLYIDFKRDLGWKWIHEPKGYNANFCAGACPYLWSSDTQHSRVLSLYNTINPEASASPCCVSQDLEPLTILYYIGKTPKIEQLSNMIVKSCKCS

TGF-β1 or -β3 = assay: SPR (Biacore) solution competition: binder pre-incubated with 5 nM TGF-β (β1 or β3, isoform not named on the sheet), injected over immobilised 1D11 anti-TGF-β antibody; plateau response measures free TGF-β

Molecule: ActRIIB monomer (receptor)
IC50, neutralization of myostatin in A204 cells with (CAGA)12-luciferase reporter (human myostatin (GDF8)): 0.38 nM

B1: N-His (TβRII)^2 (designed binder)
chain: APMAEGGGQNHHHHHHHHGGSFNPRIPPHVQKSVNNDMIVTDNNGAVKFPQLCKFCDVRFSTCDNQKSCMSNCSITSICEKPQEVCVAVWRKNDENITLETVCHDPKLPYHDFILEDAASPKCIMKEKKKPGETFFMCSCSSDECNDNIIFSEEYNTSNPDIPPHVQKSVNNDMIVTDNNGAVKFPQLCKFCDVRFSTCDNQKSCMSNCSITSICEKPQEVCVAVWRKNDENITLETVCHDPKLPYHDFILEDAASPKCIMKEKKKPGETFFMCSCSSDECNDNIIFSEEYNTSNPD
notes: Two human TβRII ectodomains in tandem with the native 35-residue linker (IPP restored), an N-terminal 8xHis tag and a thrombin site; also called modified N-His (TβRII)^2; bivalent N-His (TβRII)^2
IC50 (TGF-β1 [1]): 1.1 nM
IC50, neutralization assay in Mv1Lu luciferase reporter cells (TGF-β1 [2]): < 1 nM
IC50, neutralization of TGFβ1 (Mv1Lu luciferase reporter cells) (TGF-β1 [2]): 0.16 nM
IC50 (TGF-β1 [3]): 1.4 nM

B3: N-His (TβRIIb)^2 (designed binder)
chain: APMAEGGGQNHHHHHHHHGGSFNPRIPPHVQKSVNNDMIVTDNNGAVKFPQLCKFCDVRFSTCDNQKSCMSNCSITSICEKPQEVCVAVWRKNDENITLETVCHDPKLPYHDFILEDAASPKCIMKEKKKPGETFFMCSCSSDECNDNIIFSEEYNTSNPDIPPHVQKSDVEMEAQKDEIICPSCNRTAHPLRHINNDMIVTDNNGAVKFPQLCKFCDVRFSTCDNQKSCMSNCSITSICEKPQEVCVAVWRKNDENITLETVCHDPKLPYHDFILEDAASPKCIMKEKKKPGETFFMCSCSSDECNDNIIFSEEYNTSNPD
notes: TβRII ectodomain followed by a TβRIIb ectodomain, giving a 60-residue linker, with an N-terminal His tag; also called (TβRII)^2 trap having a 60 amino acid linker
IC50, neutralization of TGFβ1 (Mv1Lu luciferase reporter cells) (TGF-β1 [2]): 0.04 nM
fold more potent than N-His (TβRII)^2 in neutralization of TGFβ1 (TGF-β1 [2]): 4 fold
IC50 (TGF-β1 [3]): 0.6 nM

B4: (ActRIIB)^2 (designed binder)
chain: SGSEQKLISEEDLLGRGEAETRECIYYNANWELERTNQSGLERCEGEQDKRLHCYASWRNSSGTIELVKKGCWLDDFNCYDRQECVATEENPQVYFCCCEGNFCNERFTHLPEAGGPEVTYEPPPTAPTSGRGEAETRECIYYNANWELERTNQSGLERCEGEQDKRLHCYASWRNSSGTIELVKKGCWLDDFNCYDRQECVATEENPQVYFCCCEGNFCNERFTHLPEAGGPEVTYEPPPTAPTHHHHHH
IC50, neutralization of myostatin in A204 cells with (CAGA)12-luciferase reporter (human myostatin (GDF8)): 0.1 nM
fold more potent than dimeric ActRIIb-Fc in neutralization of myostatin (human myostatin (GDF8)): 10 fold

Further lines, results first:

IC50 (TGF-β1 [4]): 8.1 nM
fold higher IC50 than N-His (TβRII)^2 (TGF-β1 [1]): ~8 fold
binding result (TGF-β2): no binding (tested: 100 nM)
B2: N-His TβRII monomer (receptor)
chain: APMAEGGGQNHHHHHHHHGGSFNPRIPPHVQKSVNNDMIVTDNNGAVKFPQLCKFCDVRFSTCDNQKSCMSNCSITSICEKPQEVCVAVWRKNDENITLETVCHDPKLPYHDFILEDAASPKCIMKEKKKPGETFFMCSCSSDECNDNIIFSEEYNTSNPD
notes: Single TβRII ectodomain with an N-terminal His tag, produced in 293 cells; also called monomeric N-His TβRII; N-His TβRII (293 cells)

IC50, inhibition of TGF-β signaling in Mv1Lu luciferase reporter cells (TGF-β1 [2]): 0.58 nM
IC50 (TGF-β1 or -β3): 7.6 nM
B5: Prototype (TβRII)^2 (designed binder)
chain: TIPPEQKLISEEDLLHVQKSVNNDMIVTDNNGAVKFPQLCKFCDVRFSTCDNQKSCMSNCSITSICEKPQEVCVAVWRKNDENITLETVCHDPKLPYHDFILEDAASPKCIMKEKKKPGETFFMCSCSSDECNDNIIFSEEYNTSNPDGGRHVQKSVNNDMIVTDNNGAVKFPQLCKFCDVRFSTCDNQKSCMSNCSITSICEKPQEVCVAVWRKNDENITLETVCHDPKLPYHDFILEDAASPKCIMKEKKKPGETFFMCSCSSDECNDNIIFSEEYNTSNPDHHHHHH
